Measurements from PMC3877283, “Development of Novel Radiogallium-Labeled Bone Imaging Agents Using Oligo-Aspartic Acid Peptides as Carriers” (PLoS ONE, 2013).
Where two headings read alike, the source gives them in different places. Peptide text beside a SMILES is read from it. * marks the point of attachment. DOTA = O=C(O)CN1CCN(CC(=O)O)CCN(CC(=O)*)CCN(CC(=O)O)CC1

Experiment: Biodistribution experiments in normal mice
Assay type: in vivo, ddY mice
Conditions: for F/B ratio (Femur:blood ratio) / tissue uptake dose at 1 h / tissue uptake dose at 3 h / tissue uptake dose at 10 min: male ddY mice, no pretreatment, mean (SD) for four or five animals
Procedure: Experiments with animals were conducted in strict accordance with the Guidelines for the Care and Use of Laboratory Animals of Kanazawa University. The animal experimental protocols used were approved by the Committee on Animal Experimentation of Kanazawa University (Permit Number: AP-132633). Biodistribution experiments were performed after an intravenous administration of each diluted tracer solution (37 kBq/100 µL) to 6-week-old male ddY mice (27–32 g, Japan SLC, Inc., Hamamatsu, Japan). To investigate the effect of an excess amount of bisphosphonate on biodistribution, alendronate (20 mg/kg) was intravenously administered to mice 1 minute before the intravenous injection of ^67Ga-DOTA-(Asp)14 or ^67Ga-DOTA-Bn-SCN-HBP. Four to six mice each were sacrificed by decapitation at 10, 60, and 180 minutes post-injection. Tissues of interest were removed and weighed. Complete left femurs were isolated as representative bone samples, radioactivity was determined using an auto well gamma counter, and counts were corrected for background radiation and physical decay during counting.

## O=C(O)C[C@H](NC(=O)[C@H](CC(=O)O)NC(=O)[C@H](CC(=O)O)NC(=O)[C@H](CC(=O)O)NC(=O)[C@H](CC(=O)O)NC(=O)[C@H](CC(=O)O)NC(=O)[C@H](CC(=O)O)NC(=O)[C@H](CC(=O)O)NC(=O)[C@H](CC(=O)O)NC(=O)[C@H](CC(=O)O)NC(=O)[C@H](CC(=O)O)NC(=O)[C@H](CC(=O)O)NC(=O)[C@H](CC(=O)O)NC(=O)[C@H](CC(=O)O)NC(=O)CN1CCN(CC(=O)O)CCN(CC(=O)O)CCN(CC(=O)O)CC1)C(=O)O [67Ga-DOTA-(Asp)14, metal not drawn] ({DOTA}-DDDDDDDDDDDDDD-OH)
10 min after i.v. administration
  F/B ratio (Femur:blood ratio): 6.27 (0.66)
60 min after i.v. administration
  F/B ratio (Femur:blood ratio): 185.54 (46.89)
180 min after i.v. administration
  F/B ratio (Femur:blood ratio): 591.08 (221.41)
male, ddY, mouse, in vivo, iv, 37 kBq/100 uL, total radioactivity, Blood, 60 min after i.v. administration, read-out: Radioactivity in Blood
  tissue uptake dose at 1 h: 0.07 %ID
male, ddY, mouse, in vivo, iv, 37 kBq/100 uL, total radioactivity, Blood, 180 min after i.v. administration, read-out: Radioactivity in Blood
  tissue uptake dose at 3 h: 0.03 %ID
male, ddY, mouse, in vivo, iv, 37 kBq/100 uL, total radioactivity, Bone (complete left femur), 10 min after i.v. administration, read-out: Radioactivity in Bone (Femur)
  tissue uptake dose at 10 min: 10.1 %ID
male, ddY, mouse, in vivo, iv, 37 kBq/100 uL, total radioactivity, Bone (complete left femur), 60 min after i.v. administration, read-out: Radioactivity in Bone (Femur)
  tissue uptake dose at 1 h: 12.8 %ID
male, ddY, mouse, in vivo, iv, 37 kBq/100 uL, total radioactivity, Bone (complete left femur), 180 min after i.v. administration, read-out: Radioactivity in Bone (Femur)
  tissue uptake dose at 3 h: 13.3 %ID
male, ddY, mouse, in vivo, iv, 37 kBq/100 uL, total radioactivity, Brain, 10 min after i.v. administration, read-out: Radioactivity in Brain
  tissue uptake dose at 10 min: 0.05 %ID
male, ddY, mouse, in vivo, iv, 37 kBq/100 uL, total radioactivity, Brain, 60 min after i.v. administration, read-out: Radioactivity in Brain
  tissue uptake dose at 1 h: 0.01 %ID
male, ddY, mouse, in vivo, iv, 37 kBq/100 uL, total radioactivity, Brain, 180 min after i.v. administration, read-out: Radioactivity in Brain
  tissue uptake dose at 3 h: 0.01 %ID
male, ddY, mouse, in vivo, iv, 37 kBq/100 uL, total radioactivity, Heart, 10 min after i.v. administration, read-out: Radioactivity in Heart
  tissue uptake dose at 10 min: 0.62 %ID
male, ddY, mouse, in vivo, iv, 37 kBq/100 uL, total radioactivity, Heart, 60 min after i.v. administration, read-out: Radioactivity in Heart
  tissue uptake dose at 1 h: 0.06 %ID
male, ddY, mouse, in vivo, iv, 37 kBq/100 uL, total radioactivity, Heart, 180 min after i.v. administration, read-out: Radioactivity in Heart
  tissue uptake dose at 3 h: 0.03 %ID
male, ddY, mouse, in vivo, iv, 37 kBq/100 uL, total radioactivity, Kidney, 10 min after i.v. administration, read-out: Radioactivity in Kidney
  tissue uptake dose at 10 min: 12.4 %ID
male, ddY, mouse, in vivo, iv, 37 kBq/100 uL, total radioactivity, Kidney, 60 min after i.v. administration, read-out: Radioactivity in Kidney
  tissue uptake dose at 1 h: 0.99 %ID
male, ddY, mouse, in vivo, iv, 37 kBq/100 uL, total radioactivity, Kidney, 180 min after i.v. administration, read-out: Radioactivity in Kidney
  tissue uptake dose at 3 h: 0.76 %ID
male, ddY, mouse, in vivo, iv, 37 kBq/100 uL, total radioactivity, Large-intestine, 10 min after i.v. administration, read-out: Radioactivity in Large-intestine
  tissue uptake dose at 10 min: 0.3 %ID
male, ddY, mouse, in vivo, iv, 37 kBq/100 uL, total radioactivity, Large-intestine, 60 min after i.v. administration, read-out: Radioactivity in Large-intestine
  tissue uptake dose at 1 h: 0.04 %ID
male, ddY, mouse, in vivo, iv, 37 kBq/100 uL, total radioactivity, Large-intestine, 180 min after i.v. administration, read-out: Radioactivity in Large-intestine
  tissue uptake dose at 3 h: 0.15 %ID
male, ddY, mouse, in vivo, iv, 37 kBq/100 uL, total radioactivity, Liver, 10 min after i.v. administration, read-out: Radioactivity in Liver
  tissue uptake dose at 10 min: 0.39 %ID
male, ddY, mouse, in vivo, iv, 37 kBq/100 uL, total radioactivity, Liver, 60 min after i.v. administration, read-out: Radioactivity in Liver
  tissue uptake dose at 1 h: 0.05 %ID
male, ddY, mouse, in vivo, iv, 37 kBq/100 uL, total radioactivity, Liver, 180 min after i.v. administration, read-out: Radioactivity in Liver
  tissue uptake dose at 3 h: 0.05 %ID
male, ddY, mouse, in vivo, iv, 37 kBq/100 uL, total radioactivity, Lung, 10 min after i.v. administration, read-out: Radioactivity in Lung
  tissue uptake dose at 10 min: 1.19 %ID
male, ddY, mouse, in vivo, iv, 37 kBq/100 uL, total radioactivity, Lung, 60 min after i.v. administration, read-out: Radioactivity in Lung
  tissue uptake dose at 1 h: 0.08 %ID
male, ddY, mouse, in vivo, iv, 37 kBq/100 uL, total radioactivity, Lung, 180 min after i.v. administration, read-out: Radioactivity in Lung
  tissue uptake dose at 3 h: 0.03 %ID
male, ddY, mouse, in vivo, iv, 37 kBq/100 uL, total radioactivity, Muscle, 10 min after i.v. administration, read-out: Radioactivity in Muscle
  tissue uptake dose at 10 min: 0.57 %ID
male, ddY, mouse, in vivo, iv, 37 kBq/100 uL, total radioactivity, Muscle, 60 min after i.v. administration, read-out: Radioactivity in Muscle
  tissue uptake dose at 1 h: 0.08 %ID
male, ddY, mouse, in vivo, iv, 37 kBq/100 uL, total radioactivity, Muscle, 180 min after i.v. administration, read-out: Radioactivity in Muscle
  tissue uptake dose at 3 h: 0.05 %ID
male, ddY, mouse, in vivo, iv, 37 kBq/100 uL, total radioactivity, Pancreas, 10 min after i.v. administration, read-out: Radioactivity in Pancreas
  tissue uptake dose at 10 min: 0.5 %ID
male, ddY, mouse, in vivo, iv, 37 kBq/100 uL, total radioactivity, Pancreas, 60 min after i.v. administration, read-out: Radioactivity in Pancreas
  tissue uptake dose at 1 h: 0.07 %ID
male, ddY, mouse, in vivo, iv, 37 kBq/100 uL, total radioactivity, Pancreas, 180 min after i.v. administration, read-out: Radioactivity in Pancreas
  tissue uptake dose at 3 h: 0.03 %ID
male, ddY, mouse, in vivo, iv, 37 kBq/100 uL, total radioactivity, Small-intestine, 10 min after i.v. administration, read-out: Radioactivity in Small-intestine
  tissue uptake dose at 10 min: 0.38 %ID
male, ddY, mouse, in vivo, iv, 37 kBq/100 uL, total radioactivity, Small-intestine, 60 min after i.v. administration, read-out: Radioactivity in Small-intestine
  tissue uptake dose at 1 h: 0.08 %ID
male, ddY, mouse, in vivo, iv, 37 kBq/100 uL, total radioactivity, Small-intestine, 180 min after i.v. administration, read-out: Radioactivity in Small-intestine
  tissue uptake dose at 3 h: 0.05 %ID
male, ddY, mouse, in vivo, iv, 37 kBq/100 uL, total radioactivity, Spleen, 10 min after i.v. administration, read-out: Radioactivity in Spleen
  tissue uptake dose at 10 min: 0.42 %ID
male, ddY, mouse, in vivo, iv, 37 kBq/100 uL, total radioactivity, Spleen, 60 min after i.v. administration, read-out: Radioactivity in Spleen
  tissue uptake dose at 1 h: 0.07 %ID
male, ddY, mouse, in vivo, iv, 37 kBq/100 uL, total radioactivity, Spleen, 180 min after i.v. administration, read-out: Radioactivity in Spleen
  tissue uptake dose at 3 h: 0.03 %ID
male, ddY, mouse, in vivo, iv, 37 kBq/100 uL, total radioactivity, Stomach (footnote b), 10 min after i.v. administration, read-out: Radioactivity in Stomach
  tissue uptake dose at 10 min: 0.24 %ID
male, ddY, mouse, in vivo, iv, 37 kBq/100 uL, total radioactivity, Stomach (footnote b), 60 min after i.v. administration, read-out: Radioactivity in Stomach
  tissue uptake dose at 1 h: 0.1 %ID
male, ddY, mouse, in vivo, iv, 37 kBq/100 uL, total radioactivity, Stomach (footnote b), 180 min after i.v. administration, read-out: Radioactivity in Stomach
  tissue uptake dose at 3 h: 0.02 %ID
male, ddY, mouse, in vivo, iv, 37 kBq/100 uL, total radioactivity, 60 min after injection, mice, read-out: accumulation in bone
  tissue uptake at 1 h: 12.8 ± 1.7 %ID/g
mouse, in vivo, iv, 37 kBq/100 uL, total radioactivity, Blood, 10 min after i.v. administration (37 kBq/100 µL), gamma counter, read-out: Radioactivity in Blood
  tissue uptake dose at 10 min: 1.61 %ID
Normal mice, i.v.
  accumulation of radioactivity in the femur (in words): higher accumulation
